The labels stand for the following.
B1: LHFPL5, purified in complex with PCDH15 for cryo-EM (Strep-mCerulean removed) (natural protein, mouse (Mus musculus), UniProt Q4KL25 2-219, looked up)
chain: VKLLPAQEAAKIYHTNYVRNSRAVGVMWGTLTICFSVLVMALFIQPYWIGDSVSTPQAGYFGLFSYCVGNVLSSELICKGGPLDFSSIPSRAFKTAMFFVALAMFLIIGSIICFSLFFVCNTATVYKICAWMQLAAATGLMIGCLVYPDGWDSSEVRRMCGEQTGKYTLGHCTIRWAFMLAILSIGDALILSFLAFVLGYRQDKLLPDDYKADGNEEV
notes: called full length LHFPL5 in the text; also called TMHS; not shown: Strep, N-terminal, cleaved; mCerulean, N-terminal, cleaved
B2: PCDH15_(1EC) (EC11 to CR), purified in complex with LHFPL5 for cryo-EM (domain or fragment, mouse (Mus musculus), UniProt Q99PJ1 27-30, looked up)
chain: QYDDHPPVFQKKFYIGGVSEDARMFASVLRVKATDRDTGNYSAMAYRLIIPPIKEGKEGFVVETYTGLIKTAMLFHNMRRSYFKFQVIATDDYGKGLSGKADVLVSVVNQLDMQVIVSNVPPTLVEKKIEDLTEILDRYVQEQIPGAKVVVESIGARRHGDAYSLEDYSKCDLTVYAIDPQTNRAIDRNELFKFLDGKLLDINKDFQPYYGEGGRILEIRTPEAVTSIKKRGESLGYTEGALLALAFIIILCCIPAILVVLVSYRQFKVRQAECTKTARIQSAMPAAKPAAPVPAAPAPPPPPPPPPPGAHLYEELGESAMH
notes: signal peptide in the construct; source: HEK293 tsa201 (suspension), BacMam co-infection with LHFPL5, purified (Strep-Tactin, TALON, thrombin, SEC in digitonin); not shown: mVenus, C-terminal, cleaved; 8xHis, C-terminal, cleaved
B3: PCDH15_(4EC), purified in complex with LHFPL5 for cryo-EM (domain or fragment, mouse (Mus musculus), UniProt Q99PJ1 27-30, looked up)
chain: QYDDSPVFTNSTYTVVVEENLPAGTSFLQIEAKDVDLGANVSYRIRSPEVKHLFALHPFTGELSLLRSLDYEAFPDQEASITFLVEAFDIYGTMPPGIATVTVIVKDMNDYPPVFSKRIYKGMVAPDAVKGTPITTVYAEDADPPGMPASRVRYRVDDVQFPYPASIFDVEEDSGRVVTRVNLNEEPTTIFKLVVVAFDDGEPVMSSSATVRILVLHPGEIPRFTQEEYRPPPVSELAARGTVVGVISAAAINQSIVYSIVAGNEEDKFGINNVTGVIYVNSPLDYETRTSYVLRVQADSLEVVLANLRVPSKSNTAKVYIEIQDENDHPPVFQKKFYIGGVSEDARMFASVLRVKATDRDTGNYSAMAYRLIIPPIKEGKEGFVVETYTGLIKTAMLFHNMRRSYFKFQVIATDDYGKGLSGKADVLVSVVNQLDMQVIVSNVPPTLVEKKIEDLTEILDRYVQEQIPGAKVVVESIGARRHGDAYSLEDYSKCDLTVYAIDPQTNRAIDRNELFKFLDGKLLDINKDFQPYYGEGGRILEIRTPEAVTSIKKRGESLGYTEGALLALAFIIILCCIPAILVVLVSYRQFKVRQAECTKTARIQSAMPAAKPAAPVPAAPAPPPPPPPPPPGAHLYEELGESAMH
modifications: N-linked glycosylation (predicted sites; density at EC10 and EC11)
notes: signal peptide in the construct; the tag may have stayed on; not shown: mVenus, C-terminal, cleaved; 8xHis, C-terminal, cleaved
B4: PCDH15 EC11-ELAUC (domain or fragment, mouse (Mus musculus), UniProt Q99PJ1 27-30, looked up)
chain: QYDDHPPVFQKKFYIGGVSEDARMFASVLRVKATDRDTGNYSAMAYRLIIPPIKEGKEGFVVETYTGLIKTAMLFHNMRRSYFKFQVIATDDYGKGLSGKADVLVSVVNQLDMQVIVSNVPPTLVEKKIEDLTEILDRYVQEQIPGAKVVVESIGARRHGDAYSLEDYSKCDLTVYAIDPQTNRAIDRNELFKFLDGKLLDINKDFQPYYGEGGRILEIRTPEAVTSIKKRGESLGYTEG
modifications: treated with PNGase
notes: signal peptide in the construct; also called protocadherin 15; source: HEK293S GnTI- cells, BacMam, secreted, purified (TALON, PNGase treatment, SEC; no thrombin digestion); not shown: 8xHis, C-terminal, kept

Data set [1] deals with the molecule itself. Put plainly: cryo-EM structure; PCDH15_(1EC)-LHFPL5 complex co-expressed and co-purified in digitonin; C2, ~4.5 Å.
Data set [2] has as its target B1. The description is as above. As to conditions: both partners purified.
For data set [3], the target named is B1. Put plainly: cryo-EM structure; PCDH15_(4EC)-LHFPL5 complex co-expressed and co-purified in digitonin with 1 mM CaCl2; Volta phase plate; straight conformation, C2, ~11.3 Å; domains fitted as rigid bodies. Particulars: both partners purified.
Data set [4] concerns the molecule itself. Described as above.
Data set [5] deals with the molecule itself. The data set is described as follows: AUC; sedimentation velocity, global direct boundary modelling (Lamm equation, kinetic homo-dimerization model) of samples at 2.3, 7.0 and 11.8 µM; dimer to monomers.
Data set [6] deals with the molecule itself. The data set is described as follows: AUC; sedimentation velocity, 20°C, 50,000 rpm, absorbance 280 nm, 20 mM Tris pH 8.0, 150 mM NaCl; loading concentrations 0.1-57.8 µM; sw isotherm fitted with a monomer-dimer model; dimer to monomers.

The record followed here is publication PMC6092121, “Structure of mouse protocadherin 15 of the stereocilia tip link in complex with LHFPL5” (eLife, 2018).

As to B1, in data set [1], the “stoichiometry N” value is 2.
In the case of B2, the binding result in data set [2] is “binds”. Moreover, the “stoichiometry N” value in data set [1] amounted to 2.
Consider B3, for which the binding result in data set [3] and in data set [4] was “binds” in each case.
In data set [5], B4 showed a dissociation constant Kd of 6.64 µM and a koff of 0.00035 s⁻¹. In data set [6], the Kd was 5.7 µM and the “stoichiometry N” value came to 2.
